Assay [1] concerns the target T1, EGFR (Homo sapiens, UniProt P00533). Description: 125I-EGF whole-cell saturation binding, ZR-PR-LT cells + suramin pretreatment, Woolf analysis.
Assay [2] deals with T1, EGFR. Nature of the assay: 125I-EGF whole-cell saturation binding, ZR-75-9a1 8 uM cells, Woolf analysis.
The target of assay [3] is T1, EGFR. Description: 125I-EGF whole-cell saturation binding, ZR-75-9a1 FCSdcc 1 week, Woolf analysis.
For assay [4], the target named is T1, EGFR. Nature of the assay: 125I-EGF whole-cell saturation binding, ZR-75-9a1 FCSdcc 2 years, Woolf analysis.
The target in assay [5] is T1, EGFR. Nature of the assay: 125I-EGF whole-cell saturation binding, ZR-75-9a1 FCSdcc 4 weeks, Woolf analysis.
In assay [6] the target is T1, EGFR. Description: 125I-EGF whole-cell saturation binding, ZR-75-1 cells, Woolf analysis.
Assay [7] concerns the target T1, EGFR. Nature of the assay: 125I-EGF whole-cell saturation binding, ZR-PR-LT cells, Woolf analysis.
Assay [8] deals with T1, EGFR. Description: 125I-EGF whole-cell saturation binding, ZR-75-9a1 FCSdcc 2 weeks, Woolf analysis.
In assay [9] the target is T1, EGFR. Description: 125I-EGF whole-cell saturation binding, ZR-PR-LT cells + acid wash, Woolf analysis.

B1: EGF (protein)
chain: NSYPGCPSSYDGYCLNGGVCMHIESLDSYTCNCVIGYSGDRCQTRDLRWWELR
One may read the Kd as the equilibrium constant for the complex coming apart. For the molecule B1, the Kd came out at 310 pM in assay [1]; 190 pM in assay [2]; 370 pM in assay [3]; 180 pM in assay [4]; 140 pM in assay [5]; 230 pM in [6]. Besides, the Kd turned out to be 260 pM in assay [7], 280 pM in assay [8] and 210 pM in assay [9].

These data come from article PMC1977788 (1992).
